Here are results for 3 variants from IntAct's records for PubMed 15611062.

B1: Large T antigen (Simian virus 40), P03070 (parent)
chain: MDKVLNREESLQLMDLLGLERSAWGNIPLMRKAYLKKCKEFHPDKGGDEEKMKKMNTLYKKMEDGVKYAHQPDFGGFWDATEIPTYGTDEWEQWWNAFNEENLFCSEEMPSSDDEATADSQHSTPPKKKRKVEDPKDFPSELLSFLSHAVFSNRTLACFAIYTTKEKAALLYKKIMEKYSVTFISRHNSYNHNILFFLTPHRHRVSAINNYAQKLCTFSFLICKGVNKEYLMYSALTRDPFSVIEESLPGGLKEHDFNPEEAEETKQVSWKLVTEYAMETKCDDVLLLLGMYLEFQYSFEMCLKCIKKEQPSHYKYHEKHYANAAIFADSKNQKTICQQAVDTVLAKKRVDSLQLTREQMLTNRFNDLLDRMDIMFGSTGSADIEEWMAGVAWLHCLLPKMDSVVYDFLKCMVYNIPKKRYWLFKGPIDSGKTTLAAALLELCGGKALNVNLPLDRLNFELGVAIDQFLVVFEDVKGTGGESRDLPSGQGINNLDNLRDYLDGSVKVNLEKKHLNKRTQIFPPGIVTMNEYSVPKTLQARFVKQIDFRPKDYLKHCLERSEFLLEKRIIQSGIALLLMLIWYRPVAEFAQSIQSRIVEWKERLDKEFSLSVYQKMKFNVAMGIGVLDWLRNSDDDDEDSQENADKNEDGGEKNMEDSGHETGIDSQSQGSFQAPQSSQSVHDHNQPYHICRGFTCFKKPPTPPPEPET

The variants in the first experiment derive from B1. The conditions noted are these: with fbw1a_human BTRC.
As for T701A;E705D, the “effect of a mutation on the interaction” value is “decreasing interaction”.

In a further experiment the parent is B1. The conditions noted are these: with fbw1b_human FBXW11, Q9UKB1.
Chain of fbw1b_human FBXW11, Q9UKB1 (Q9UKB1 whole entry): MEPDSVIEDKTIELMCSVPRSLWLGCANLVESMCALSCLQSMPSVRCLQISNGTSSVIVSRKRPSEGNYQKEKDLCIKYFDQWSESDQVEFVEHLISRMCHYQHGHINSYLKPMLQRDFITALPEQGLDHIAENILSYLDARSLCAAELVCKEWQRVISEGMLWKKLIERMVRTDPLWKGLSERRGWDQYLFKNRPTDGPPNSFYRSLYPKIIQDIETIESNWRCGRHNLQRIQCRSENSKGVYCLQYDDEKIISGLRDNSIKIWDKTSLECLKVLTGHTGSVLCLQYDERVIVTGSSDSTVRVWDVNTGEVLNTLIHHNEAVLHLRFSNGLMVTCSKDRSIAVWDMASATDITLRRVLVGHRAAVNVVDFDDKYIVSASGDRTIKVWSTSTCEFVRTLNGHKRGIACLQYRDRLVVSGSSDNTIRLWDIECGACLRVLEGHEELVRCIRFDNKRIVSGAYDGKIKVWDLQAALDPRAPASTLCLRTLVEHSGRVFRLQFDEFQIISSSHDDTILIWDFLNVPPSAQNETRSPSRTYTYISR
Turning to T701A;E705A, the “effect of a mutation on the interaction” value is reported as “decreasing interaction”.

The variants in a further experiment derive from B1. Particulars: with fbxw7_human FBXW7, Q969H0.
Chain of fbxw7_human FBXW7, Q969H0 (Q969H0 whole entry): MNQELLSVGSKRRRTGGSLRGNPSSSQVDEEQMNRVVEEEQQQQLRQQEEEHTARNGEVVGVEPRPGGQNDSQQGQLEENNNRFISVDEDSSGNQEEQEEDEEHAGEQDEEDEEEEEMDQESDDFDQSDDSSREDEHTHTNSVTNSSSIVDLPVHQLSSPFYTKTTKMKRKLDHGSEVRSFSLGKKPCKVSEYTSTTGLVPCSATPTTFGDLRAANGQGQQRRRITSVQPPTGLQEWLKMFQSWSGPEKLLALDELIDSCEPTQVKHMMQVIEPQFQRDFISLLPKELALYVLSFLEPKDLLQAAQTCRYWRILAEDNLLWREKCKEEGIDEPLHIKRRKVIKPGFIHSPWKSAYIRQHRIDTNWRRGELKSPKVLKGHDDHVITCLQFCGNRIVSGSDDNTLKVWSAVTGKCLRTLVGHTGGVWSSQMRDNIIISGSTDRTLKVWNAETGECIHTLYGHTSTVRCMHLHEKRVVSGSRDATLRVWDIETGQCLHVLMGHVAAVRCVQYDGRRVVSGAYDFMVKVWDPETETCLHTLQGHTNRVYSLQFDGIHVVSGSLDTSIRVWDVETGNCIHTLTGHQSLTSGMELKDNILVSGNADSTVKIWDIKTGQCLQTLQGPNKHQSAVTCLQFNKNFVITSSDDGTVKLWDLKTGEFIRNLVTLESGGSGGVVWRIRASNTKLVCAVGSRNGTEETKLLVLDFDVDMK
In the case of T701A, the “effect of a mutation on the interaction” value is listed as “decreasing interaction”.
